This note sets out measurements from publication PMC9410871, “Structural basis of DNA packaging by a ring-type ATPase from an archetypal viral system” (Nucleic Acids Research, 2022).

The target of data set [1] is HK97 small terminase (TerS) protein GP1 (bacteriophage HK97). The experiment in a line: SEC-MALS; TerS in solution; conditions not told in the main text. A general note: SEC sorts molecules by how far they enter the pores of the column.
The target is the same in data set [2]. The data set can be described thus: native MS; TerS buffer-exchanged into 200 mM ammonium acetate, pH 7.5; modified Q-Exactive Orbitrap, positive ion mode, static nanospray.
Data set [3] shares this target. The data set can be described thus: crystal structure; TerS 22 mg/mL in 300 mM potassium glutamate, 20 mM HEPES pH 7.0; reservoir 9% PEG 3350, 0.1 M succinic acid pH 7.0; three subunits in the asymmetric unit around a crystallographic 3-fold axis.
Data set [4] concerns the molecule itself. The experiment in a line: cryo-EM structure; packaging reaction with 125 nM prohead, 125 nM ScaI-linearized pUC18 DNA, 1 uM TerL, 2 uM TerS, vitrified about 30 s after 1 mM ATP; 5-fold symmetry applied to resolve TerL, 6-fold to resolve the portal.

As a reminder, the stoichiometry N is a count of units in the complex or per binding partner. Take “HK97 small terminase (TerS) protein GP1 (natural protein)”: the stoichiometry N in data set [1], in data set [2] and in data set [3] was 9 each time.

B1: HK97 portal (portal complex of the procapsid) (natural protein, bacteriophage HK97, UniProt P49859 1-424, looked up)
chain: MEEPKYTIDLRTNNGWWARLKSWFVGGRLVTPNQGSQTGPVSAHGYLGDSSINDERILQISTVWRCVSLISTLTACLPLDVFETDQNDNRKKVDLSNPLARLLRYSPNQYMTAQEFREAMTMQLCFYGNAYALVDRNSAGDVISLLPLQSANMDVKLVGKKVVYRYQRDSEYADFSQKEIFHLKGFGFTGLVGLSPIAFACKSAGVAVAMEDQQRDFFANGAKSPQILSTGEKVLTEQQRSQVEENFKEIAGGPVKKRLWILEAGFSTSAIGVTPQDAEMMASRKFQVSELARFFGVPPHLVGDVEKSTSWGSGIEQQNLGFLQYTLQPYISRWENSIQRWLIPSKDVGRLHAEHNLDGLLRGDSASRAAFMKAMGESGLRTINEMRRTDNMPPLPGGDVAMRQAQYVPITDLGTNKEPRNNGA
notes: Portal protein of bacteriophage HK97, within the procapsid; Seen only as part of the procapsid m4; source: E. coli 594 infected with HK97 amber mutant amC2; within purified procapsids; copies: 12
With B1, the “stoichiometry N” value in data set [4] came to 12.
